The values below come from patent US20210188969A1, “ANTIBODIES THAT BIND INTERLEUKIN-2 AND USES THEREOF” (published 2021).

A value given as a limit tells only on which side of the number the result lay.

Experiment [1] has as its target recombinant human IL-2 (human) (UniProt P60568).
Experiment [2] shares this target. This is another data set of the same source.
The target is the same in experiment [3]. This is another data set of the same source.
Experiment [4] has the same target. This is another data set of the same source.
For experiment [5] the target is unchanged. The source holds these as a separate data set.
The target is the same in experiment [6]. This is another data set of the same source.
For experiment [7] the target is unchanged. This is another data set of the same source.
Experiment [8] has the same target. This is another data set of the same source.
For experiment [9], the target named is mouse IL-2 Rβγ on mouse primary NK cells (mouse) (UniProt P16297).
The next experiment deals with T1, rat IL-2 (rat, UniProt P17108).
T1 sequence: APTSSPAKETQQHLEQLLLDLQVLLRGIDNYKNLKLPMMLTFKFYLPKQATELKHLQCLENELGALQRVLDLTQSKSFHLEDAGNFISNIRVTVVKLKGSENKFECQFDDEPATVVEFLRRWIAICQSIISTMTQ
Nature of the experiment: SPR (Biacore 4000), antibody captured on anti-human IgG Fc, IL-2 30 nM to 1 nM; affinity estimate. How it is done: Antibody affinities were measured by SPR using the Biacore 4000 with a standard capture methodology. Briefly, anti-human IgG (Fc specific) from an anti-human antibody capture kit (Biacore) was immobilized onto spots 1, 2, 4, and 5 of all four flow cells of a CM-5 sensor chip by amine coupling according to the manufacturer's instructions. Running buffer was HBS-EP+ with 1% BSA. […] Data were analyzed using the Biacore 4000 Evaluation software.
These sequences were imported into vector NTI® (Lifetech) and aligned using the alignx tool.

As to MAB602 (antibody), in [1], the fold EC50 shift of IL-2-induced pSTAT5a,b, Human Primary NK cells (huRβγ) was 10 fold and the fold EC50 shift of IL-2-induced pSTAT5a,b, NK92 (huRαβγ) was determined as 959 fold. Besides, in experiment [2], the fold right-shift in EC50 of IL-2-induced CD69 on CD56bright NK cells, IL-2 pre-complexed with 200 nM antibody fell in the range of 5 to 10 fold. Further, the fold right-shift in EC50 of IL-2-induced CD69 on Tregs, IL-2 pre-complexed with 200 nM antibody in experiment [3] is 5 to 10 fold. Moreover, in [4], the fold EC50 shift of IL-2-induced proliferation, BaF3/IL-2 HuRβγ is 1.2 fold and the fold EC50 shift of IL-2-induced proliferation, NK92 (huRαβγ) was found to be 15 fold. In addition, the fold shift in EC50 of IL-2-induced phosphorylation of STAT5a,b, NK-92 cells, relative to isotype control in [5] was determined as 1000 fold. The fold EC50 shift of IL-2-induced proliferation, CTLL-2 (muRαβγ) in experiment [6] stood at 18 fold. In experiment [7], the fold EC50 shift of IL-2-induced pSTAT5a,b, CTLL-2 (muRαβγ) turned out to be 227 fold and the fold EC50 shift of IL-2-induced pSTAT5a,b, Mouse Primary NK cells (muβγ) turned out to be 3 fold.
Take isotype control (anti-KLH) (antibody): the EC50 of IL-2-induced phosphorylation of STAT5a,b, mouse primary NK cells, with isotype control in experiment [8] was found to be 0.116 nM. The EC50 of IL-2-induced phosphorylation of STAT5a,b, NK-92 cells, with isotype control in experiment [5] amounted to 0.0009 nM.
The molecule “IL-2/MAB602 complex (from UniProt P60568)” yielded an EC50 of IL-2-induced phosphorylation of STAT5a,b, mouse primary NK cells, IL-2 pre-complexed with 100 nM antibody in experiment [9] of 0.361 nM.

B1: XPA.92.099 (antibody, V domains shown)
VH: QVQLVESGGGLVKPGRSLRLSCAASGFTFNRYAMSWVRQAPGKGLEWVAMISFDGGNQYYTDSVSGRFTISRDNSKTTLFLQMDSLRTEDTAVYYCVRSPAGDWVAYFDYWGQGTLVTVSS
VL: DIQMTQSPSSLSASIGDRVTIPCQASEDISNHLSWYQQKPGKAPKPLIFDASDLETGVPSRFSGSGSGTDFALTISSLRPDDFATYYCHQYHDYPSYTFGHGTKLEIKR
In the case of B1, in experiment [1], the fold EC50 shift of IL-2-induced pSTAT5a,b, Human Primary NK cells (huRβγ) was determined as 24 fold and the fold EC50 shift of IL-2-induced pSTAT5a,b, NK92 (huRαβγ) stood at 495 fold. Also, in experiment [4], the fold EC50 shift of IL-2-induced proliferation, BaF3/IL-2 HuRβγ worked out at 2.4 fold and the fold EC50 shift of IL-2-induced proliferation, NK92 (huRαβγ) is 22 fold. Further, in experiment [6], the fold EC50 shift of IL-2-induced proliferation, CTLL-2 (muRαβγ) is 54 fold. Also, in experiment [7], the fold EC50 shift of IL-2-induced pSTAT5a,b, CTLL-2 (muRαβγ) was determined as 293 fold and the fold EC50 shift of IL-2-induced pSTAT5a,b, Mouse Primary NK cells (muβγ) amounted to 17 fold.

B2: XPA.92.042 (antibody, V domains shown)
VH: EVQLVQSGTEVKKAGDSLKISCKGSGYNFDTYWIGWVRQMPGRGLEWMGTIYPADSDTRYSPSFQGQVTMSADKSISTAYLQWGSLRASDTAMYYCARFSSSAYDIWGQGTMVTVSS
VL: SYELTQPPSVSVSPGQTARITCSGDALPRKFAYWYQQKSGQAPVLVIYQDTKRPSGIPERFSGSSSGTTVTLTISDVQAEDDADYYCQSADRSDSYVFGAGTKLTVLG
Consider B2, for which, in [1], the fold EC50 shift of IL-2-induced pSTAT5a,b, Human Primary NK cells (huRβγ) turned out to be 41 fold and the fold EC50 shift of IL-2-induced pSTAT5a,b, NK92 (huRαβγ) was 1860 fold. In addition, in [4], the fold EC50 shift of IL-2-induced proliferation, BaF3/IL-2 HuRβγ is 5 fold and the fold EC50 shift of IL-2-induced proliferation, NK92 (huRαβγ) is 52 fold. Further, in experiment [6], the fold EC50 shift of IL-2-induced proliferation, CTLL-2 (muRαβγ) is 156 fold. In experiment [7], the fold EC50 shift of IL-2-induced pSTAT5a,b, CTLL-2 (muRαβγ) was 793 fold and the fold EC50 shift of IL-2-induced pSTAT5a,b, Mouse Primary NK cells (muβγ) was 14 fold.

B3: XPA.92.019 (antibody, V domains shown)
VH: EVQLVESGGGLVQPGRSLRLSCAASGFTFSYYGMHWVRQAPGKGLEWVADISNDGSNKYYADSVKGRFTISRDNSKTTLYLQMNSLRPEDTAVYYCATPYYDSSGLDYWGQGTLVTVSS
VL: SYELTQPPSVSVSPGQTARITCSGDALPKRFAYWYQQKAGQAPVLVIYEDNKRPSGIPETLSGSSSGTTATLTISGAQEEDEADYYCYSTDNTGGLWVFGGGTKLTVLG
By Kd is commonly meant the concentration at which binding is half-saturated. With B3, in the experiment with rat IL-2, the Kd was more than 1000 nM. In addition, in experiment [1], the fold EC50 shift of IL-2-induced pSTAT5a,b, Human Primary NK cells (huRβγ) came to 40 fold and the fold EC50 shift of IL-2-induced pSTAT5a,b, NK92 (huRαβγ) stood at 966 fold. Further, in [3], the fold shift in EC50 of IL-2-induced CD69 on Tregs, IL-2 pre-complexed with 200 nM antibody lay within 10 to 15 fold. Besides, in [4], the fold EC50 shift of IL-2-induced proliferation, BaF3/IL-2 HuRβγ was determined as 5.2 fold and the fold EC50 shift of IL-2-induced proliferation, NK92 (huRαβγ) came to 33 fold. Further, in [6], the fold EC50 shift of IL-2-induced proliferation, CTLL-2 (muRαβγ) stood at 130 fold. Further, in experiment [7], the fold EC50 shift of IL-2-induced pSTAT5a,b, CTLL-2 (muRαβγ) stood at 523 fold and the fold EC50 shift of IL-2-induced pSTAT5a,b, Mouse Primary NK cells (muβγ) stood at 15 fold.
